Data published in the supplement of paper PMC9170038.

Tested on: K4 kissing-loop RNA reporter
Assay: apparent KD of K4 kissing-loop reporter; higher = weaker reporter binding
Conditions: Eterna round: R107
Experimental: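 RNA-MaP round R107: designed RNA switches with theophylline, tryptophan, arginine or FMN aptamers are transcribed on-chip within common flanks. They are titrated with a labelled K4 kissing-loop RNA reporter in RNA-MaP buffer (100 mM Tris pH 7.5, 80 mM KCl, 4 mM MgCl2), without ligand or with the indicated ligand. Median apparent KD per design.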

[1] = input ligand: theophylline 20 uM
[2] = input ligand: tryptophan 2.4 mM
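Also: bound reporter read as fluorescence of individual clusters on recovered sequencing chips by microscopy, with normalized cluster intensities fitted with a binding model.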

Row | Sequence | apparent KD of K4 kissing-loop reporter (input ligand: FMN 200 uM) | apparent KD of K4 kissing-loop reporter (input ligand: arginine 13.2 mM) | apparent KD of K4 kissing-loop reporter (input ligand: none) | apparent KD of K4 kissing-loop reporter [1] | apparent KD of K4 kissing-loop reporter [2]
1 | ACCGCAUUGGGCUGAUCCCAAUGCGCUGGUCGAGGACCGGUACGGCCGCCACUCGUCCAGUGAUGUUGGACUAGGGCAACUGAAG [Veraceer] | 390 nM | 244 nM | 249 nM | 449 nM | 83.3 nM
2 | ACGUAGUUCUAGGAUACCAGCCAAGGUGCCAGGACAAAAGUCCUGGCAGCCAGUGAUGUUGGCCCUUGGCAGCCUAGAACUACGA [Omei KL Theo B Exc B v7] | 164 nM | 145 nM | 154 nM | 122 nM | 137 nM
3 | GUGAUAUCGCAAGGAUAUCCAAUUUCUGCGGAUAAGUGAUGUUUGGCGCCGCCUCAGUUAUGGCAAGGAGAAGGUGCGGCCUAGC [theeternabot_sameState_KL_FMN_B_28] | 473 nM | 286 nM | 428 nM | 366 nM | 383 nM
4 | CCGCCAUCAUCAGAUACCAGACUGAUGGCGGUAACCGCCAAGCGAGUGAUGUUCGCAUCAGUCCCUUGGCAGCUGAUGAAGACUG [Theo B SS t4] | 255 nM | 82.4 nM | 110 nM | 104 nM | 154 nM
5 | UGCCGCAAGGCGAGCGCUCCCACUCCGGAAGGAGCGCCCGGAAGGGCAGGUAGGUCGCCGGAGUGAUGUUCCGGUGGAGGGCUCG [#2 Exclusion - Arginine A Attempt #26 (Inspired by Omei)] | 462 nM | 165 nM | 358 nM | 337 nM | 297 nM
6 | AAUAAGGUCGCCGAUACCAGCGCAGGCAGAGCAAAGCUCUGCCUAGUAGUGAUGUUACUGCGCCCUUGGCAGCGGUGGCACGACC [Omei KL Theo B SS C v4] | 863 nM | 824 nM | 930 nM | 397 nM | 798 nM
7 | ACAGUUGCUAGUGAUACCAGACUAGCACUACGUAGUAUGUCAAGUGAUGUUUGACAACUAGUCCCUUGGCAGCGCGAUACGACUG [#12 K4 Theophylline B Same State] | 181 nM | 152 nM | 170 nM | 136 nM | 169 nM
8 | AAGUGAUGUUGUAGUGAUGUUGUGAUGUUGCAGGAUAUAUAGUGAUGUAGAAGGGUAUGUACAGUUUUUUUUUUUGAGUGAUGAU [vvcvmullin] | 82.3 nM | 40.1 nM | 74.2 nM | 51.4 nM | 70.3 nM
9 | UCCUGCAAUCCACCACGAAAGUGGAUGGAUACCAGAGUCGAAAGACUCCCUUGGCAGCCAGUGAUGUUGGAGCAGGUAAAAUAAA | 526 nM | 532 nM | 630 nM | 402 nM | 473 nM
10 | UGGAGUUGACGAAAAGUCAACUCCUGGGAAGGAGCGGACGAAAGUCCAGGUAGGUCGCCCACUACCAGUGAUGUUGGUACCUAAA | 274 nM | 320 nM | 257 nM | 307 nM | 206 nM
11 | UUGACCUACUCAGGAUAUCCGCAGUGAUGUUGCGGUUGGCCUGAGCGGCAUGAAAAUCUUACUACAGGAGAAGGGAGAGGGUUAC [Atusgeis] | 117 nM | 85.6 nM | 82.6 nM | 72.9 nM | 86 nM
12 | CAUACGCAUGGAGGAUAUGAGAUUUCUCAUAUUAUUUAAUAUUCUCAGUGAUGUUGAGAUAUAAACUCAGAAGGCCAUGUGUAUG [Ex FMN B 2] | 340 nM | 198 nM | 196 nM | 245 nM | 215 nM
13 | AGUCCACUCUAAAGAGUGGACCUAAGGGAUACCAGUGAUGUUGGUCACCCUUGGCAGCCCGCUGUCAUCGAUAAAGAUGGCAGAA | 136 nM | 121 nM | 120 nM | 147 nM | 120 nM
14 | AUUUAGACGAGUGAUGUUCGUGAUAUUACAGAGGAUAUGCUUAAAAGCAGAAGGCUGUAUUUAUAUUUGUUAUGUAAUUUUAAAA [JR_ExcFMNA_Sub005] | 79.9 nM | 95.4 nM | 78 nM | 95.5 nM | 62.7 nM
15 | GGGUGUAGUGCGGCCGCCACUGUGAUAGUAGAAGAGUAUAGUGAUGUUAUAUAGGAUUAAUAGAAUAGGACCGGGCAUUAGACUU [#24 K4 Tryptophan B Same State] | 348 nM | 340 nM | 368 nM | 395 nM | 209 nM
16 | GGAUAGGAUAGAGGAUAUGGUAUAUGCAAGAAUAACUUGUCAUGUAAAUCCAUGAGGAGUGAUGUUCCAGAAGGCUGUCCUAUCG [MatMod 10 - Jieux - Exclusion - FMN B] | 646 nM | 324 nM | 480 nM | 519 nM | 379 nM
17 | CGCCACAACUGAAGGAGCGCGCCAGUGAUGUUGGACGGCUUCGUCAAGGAAACUGCACCGGUGCAGGUAGGUCGCAGUGCGUGGU [Eranarve] | 186 nM | 164 nM | 204 nM | 162 nM | 195 nM
18 | GAAUAAUAAGUAGCAGUGAUGUUGCUACUACGAGGACCGGUACGGCCGCCACUCGAAUACGAGUGGACACUGCUACUACCACUCG [(H1)-(H2)-(Trp1)-(Trp2)-(T)'-(H)'-(T)''_Design8] | 121 nM | 118 nM | 121 nM | 122 nM | 170 nM
19 | GGUCCACGCCAUGCCAGUGAUGUUGGUAAGCGAGGACCGGUACGGCCGCCACUCGUUCAAUACCGUAUCGCCCAUAACCUGGAGA [Oneseror] | 113 nM | 89.1 nM | 104 nM | 96.5 nM | 118 nM
20 | AGACUACCAACACUGUCAAUAGACAGUGACUAGGAUAUGCUGAUAAGCAGAAGGAGUGAUGUUCCUAAUAGAAAGGUAGUCAAAU [FmnAX 17 #SwitchBubble #StaticStem #K4Early] | 294 nM | 237 nM | 252 nM | 222 nM | 219 nM
21 | GAAUUAUGUAGAAGGAGCGUCAGAAGGUAUAGGUGCGAGUGAUGUUUGGACCUGUUAAUUUGACAGGUAGGUCGCUACAGAAGGA [KL-SSArg B20 #analogue] | 533 nM | 291 nM | 448 nM | 304 nM | 320 nM

Row | Sequence | apparent KD of K4 kissing-loop reporter (input ligand: FMN 200 uM) | apparent KD of K4 kissing-loop reporter (input ligand: arginine 13.2 mM) | apparent KD of K4 kissing-loop reporter (input ligand: none) | apparent KD of K4 kissing-loop reporter [1] | apparent KD of K4 kissing-loop reporter [2]
22 | AACGUUUUGAGAAGGAGCGCGAUAAGCAGUGAUGUUGCUAAAAUUCUAUUUCAAUUUAAUACGCAGGUAGGUCGCUCAAUACGUA [JR_SSArginiB_Sub020] | 143 nM | 136 nM | 138 nM | 156 nM | 118 nM
23 | UGUCAUUGGUCGGCCGCCACUUCGUGUAGAGUGAUGUUUUGUAGGACGGAUCGAAAGAUCUGUCGGAGGACCGGGACCGAUGACU [FiskerMod 17 - Jieux - Same State - Tryptophan B] | 228 nM | 139 nM | 408 nM | 481 nM | 889 nM
24 | UAUUAAUUGUCAGGAUAUCGUAUUCGAGUGAUGUUCGUAUAUCGACGAUAGUCGAUAUUAUCUAUACGAGAAGGGACAUUAUUUA [JR_SSFMNB_Sub006] | 418 nM | 334 nM | 477 nM | 341 nM | 379 nM
25 | UGUCAUUGGUCUGAUACCAGUUAGCGCGAUAAGCGCAAAACUGGAGUGAUGUUCCCAAAUAACCCUUGGCAGCAGACCGAUGACU [MAT - Same State Theophlline B - Mod of Eli - D13] | 337 nM | 155 nM | 235 nM | 189 nM | 176 nM
26 | CCAGGACGAUGAGGAGGAUGAAUUACUGAAGGAGCGCAUAUGGUUGCAGGUAGGUCGCGGUGAACAAGUAUAGUGAUGUUAUAUC [SSArgA.S] | 365 nM | 971 nM | 538 nM | 321 nM | 321 nM
27 | CGCGGCCGGCCGGAUACCAGUGACCCGCUGGAAACCGCGGGCCCAGAGUGAUGUUCGGGACACCCUUGGCAGCCGCCUGGGCGUG [#2 Same State - Theophylline B Attempt #2 (HarryS)] | 547 nM | 309 nM | 440 nM | 456 nM | 397 nM
28 | UUUAAAUAUAGUGAUGUUAUAUAACAAUGACGAGGACCGGUACGGCCGCCACUCGAGAGAGAUAAUGGUCUUACAAAUGUAAGUC [AstrosSSTryA#8] | 546 nM | 589 nM | 852 nM | 738 nM | 399 nM
29 | GGAGCCGAUAGUGAUACCAGCCAGUGAUGUUGGCGAAGUCUCAUUUUCGCUCUCGGUAAGGGCCCUUGGCAGCACUUACUCGGAA [Arledied] | 105 nM | 94 nM | 102 nM | 95.9 nM | 104 nM
30 | AAGUGUGGUCCAGUGAUGUUGGAACCAGAUACCAGCGACAUAGUGCGCCCUUGGCAGCUGGCACACAUGCGCUGCACGACUAGAA [Riusveis] | 206 nM | 182 nM | 207 nM | 363 nM | 168 nM
31 | UGGAGUUGACGAAAAGUCAACUCCUGAGAUACCAGUGACGAAAGUCACCCUUGGCAGCUCACUGCCAGUGAUGUUGGUUCAUAAG [#03 K4 Theophylline A Same State] | 223 nM | 197 nM | 152 nM | 245 nM | 142 nM
32 | UUAUCAUCAGCGGCCGCCACUGCAAAUUGGAGUGAUGUUCCAAGCGUGGAUAAUGAAAUCACUAGUAGGACCGGGUUGAUGAAUU [AK 1 Ex Trypt B] | 309 nM | 231 nM | 270 nM | 254 nM | 306 nM
33 | GGCUUGCUAGUGAUGUUAGCAUUUUCUGAAGGAGCGCGUGAAAACGCAGGUAGGUCGCAGAACCUUGCCAACUAUUUUAGUUGCC [Ex Arginine A K4 27] | 101 nM | 113 nM | 94.3 nM | 97.3 nM | 82.4 nM
34 | ACCUACGAUCACAAAAGUGAUUGUAGGAUCUAGGAUAUGCUGAAAAGCAGAAGGAGAGUGAUGUUCUCAACUCACGAAAGUGAGA [FmnAX 1 #OpenEnded #K4Late] | 354 nM | 184 nM | 183 nM | 182 nM | 173 nM
35 | GAUUAAUAAGAGGAUACCAGUACAAAUAAAGUACAUUAAUAGUAGAGUGAUGUUCUAAAGUACCCUUGGCAGCUUAGAGUAAGUU [ExTheophylB.A] | 119 nM | 207 nM | 174 nM | 226 nM | 94.4 nM
36 | AAUAGGGAUAGUGAUGUUAUCCCUUAUGAUACCAGUGCCAUCGGACACCCUUGGCAGCAUACGGGCAGUGAUGUUGUUCUUGGAG [Exclusion Theophylline A GF 15] | 103 nM | 75.5 nM | 78.6 nM | 76.5 nM | 79.3 nM
37 | GUAGGAUGAGGAGGAGGAUGAAUUACUGAAGGAGCGCAAAGAAAUGCAGGUAGGUCGCGGUAAAGAAGUAUAGUGAUGUUAUAUC [#08 K4 Arginine A Same State] | 588 nM | 416 nM | 463 nM | 700 nM | 598 nM
38 | AGGCACGAGCAAGGAUAUCGAGUAGAGUGAUGUUCUGCCUGGGUUGGCUCGUAAGAGCCUUCUCAGCGAGAAGGUGCUCGUGCCU [#2 Same State - FMN A Attempt #20 (HarryS)] | 217 nM | 511 nM | 544 nM | 511 nM | 944 nM
39 | UGUGAUGUUGUGAUGUUUAGUGUUGUUGGGCAGGAUAUUGUAGAGGCGAGAAGGGCUUGUGUGAUGUAUGAGUGAUGUUUGUAGU [cffdmullin] | 177 nM | 89.6 nM | 127 nM | 142 nM | 119 nM
40 | AGUGUUAGGUUAGAUACCAGCCGUCUGUAGAUAAUCCUCAGACCGCCAGUGAUGUUGGCAGGCCCUUGGCAGCUAACAGAACAGA [Orbediqu] | 238 nM | 206 nM | 210 nM | 154 nM | 214 nM
41 | UUUCGGUUCUGAGGAUAUUCGGACAAAUAUAGUGAUGUUGUAUAAGGAGGAGGGUGUUGGGAGUGAGGAGAAGGCAGAAGAGGAU [ExFMNB.S] | 838 nM | 707 nM | 759 nM | 670 nM | 473 nM
42 | UGACUGGACUGAAGGAGCGCUAAACUCCUAGUGAUGUUAGGGAAACGAGACAAAGUCUCGAGGCAGGUAGGUCGCAGUCUAGUCU [FiskerMod 1 - Jieux - Same State - Arginine B] | 254 nM | 199 nM | 261 nM | 265 nM | 244 nM
